From US20090208447A1 (MEDIGENE, published 2009)

Target: HLA-A*0201 loaded with the Carcinoembryonic antigen (CEA)-derived … peptide (biotinylated on the C-terminal biotinylation tag)
Assay: SPR (Biacore), Example 4

Binder	Kd [nM]	koff [s⁻¹]
SEQ ID NO 6 (receptor) MGHLPKPTLWAEPGSVITMGQPVTLRCQGGQETQEYRLYREKKTAPWITRIPQELVKKGQFPIPSITWEHAGRYRCYYGSDTAGRSESSDPLELVVTGAYIKPTLSAQPSPVVNSGGNVTLQCDSQVAFDGFILCKEGEDEHPQCLNSQPHARGSSRAIFSVGPVSPSRRWWYRCYAYDSNSPYEWSLPSDLLELLVL	≤ 1000	≤ 2
SEQ ID NO 9 (receptor) MGHLPKPTLWAEPGSVITMQRPVTLRCQGGQETQEYRLYRERKTAPWITRIPQELVKKGQFPIPSITWEHAGRYRCYYGSDTAGRSESSDPLELVVTGAYIKPTLSAQPSPVVNSGGNVTLQCDSQVAFDGFILCKEGEDEHPQCLSSQPHARGSSRAIFSVGPVSPSRRWWYRCYAYDSNSPYEWSLPSDLLELLVL	≤ 1000	≤ 2
SEQ ID NO 35 (receptor) MGHLPKPTLWAEPGSVITQGSPVTLRCQGGQETQEYRLYREKKTAPWITRIPQELVKKGQFPIPSITWEHAGRYRCYYGSDTAGRSESSDPLELVVTGIYRQPTLSAQPSPVVNSGGNVTLQCDSQVAFDGFILCKEGEDEHPQCLNSQPHARGSSRAIFSVGPVSPSRRWWYRCYAYDSNSPYEWSLPSDLLELLVL	≤ 1000	≤ 2
SEQ ID NO 31 (receptor) MGHLPKPTLWAEPGSVITMDQPVTLRCQGGQETQEYRLYREKKTAPWITRIPQELVKKGQFPIPSITWEHAGRYRCYYGSQGGLRSESSDPLELVVTGVYIKPTLSAQPSPVVNSGGNVTLQCDSQVAFDGFILCKEGEDEHPQCLNSQPHARGSSRAIFSVGPVSPGRRWWYRCYAYDSNSPYEWSLPSDLLELLVL	≤ 1000	≤ 2
SEQ ID NO 29 (receptor) MGHLPKPTLWAEPGSVITQGSPVTLRCQGGQETQEYRLYREKKTAPWITRIPQELVKKGQFPIPSITWEHAGRYRCYYGTQTAGRSESSDPLELVVTGAYIKPTLSAQPSPVVNSGGNVTLQCDSQVAFDGFILCKEGEDEHPQCLNSQPHARGSSRAIFSVGPVSPSRRWWYRCYAYDSNSPYEWSLPSDLLELLVL	≤ 1000	≤ 2
SEQ ID NO 23 (receptor) MGHLPKPTLQAEPGSVITQGSPVTLRCQGGQETQEYRLYREKKTAPWITRIPQELVKKGQFPIPSITWEHAGRYRCVIQRGTAGRSESSDPLELVVTGVYIKPTLSAQPSPVVNSGGNVTLQCDSQVAFDGFILCKEGEDEHPQCLNSQPHARGSSRAIFSVGPVSPSRRWWYRCYAYDSNSPYEWSLPSDLLELLVL	≤ 1000	≤ 2
SEQ ID NO 34 (receptor) MGHLPKPTLWAEPGSVITMDQPVTLRCQGGQETQEYRLYREKKTAPWITRIPQELVKKGQFPIPSITWEHAGRYRCMQYTLTAGRSESSDPLELVVTGVYIKPTLSAQPSPVVNSGGNVTLQCDSQVAFDGFILCKEGEDEHPQCLNSQPHARGSSRAIFSVGPVSPSRRWWYRCYAYDSNSPYEWSLPSDLLELLVL	≤ 1000	≤ 2
SEQ ID NO 7 (receptor) MGHLPKPTLWAEPGSVITMDQPVTLRCQGGQETQEYRLYREKKTAPWITRIPQELVKKGQFPIPSITWEHAGRYRCYYGSDTAGRSESSDPLELVVTGVYIKPTLSAQPSPVVNSGGNVTLQCDSQVAFDGFILCKEGEDEHPQCLNSQPHARGSSRAIFSVGPVSPGRRWWYRCYAYDSNSPYEWSLPSDLLELLVL	≤ 1000	≤ 2
SEQ ID NO 26 (receptor) MGHLPKPTLWAEPGSVITQGSPVTLRCQGGQETQEYRLYREKKTAPWITRIPQELVKKGQFPIPSITWEHAGRYRCMQYTLTAGRSESSDPLELVVTGVYIKPTLSAQPSPVVNSGGNVTLQCDSQVAFDGFILCKEGEDEHPQCLNSQPHARGSSRAIFSVGPVSPSRRWWYRCYAYDSNSPYEWSLPSDLLELLVL	≤ 1000	≤ 2
SEQ ID NO 32 (receptor) MGHLPKPTLWAEPGSVITMDQPVTLRCQGGQETQEYRLYREKKTAPWITRIPQELVKKGQFPIPSITWEHAGRYRCYYGTQTAGRSESSDPLELVVTGVYIKPTLSAQPSPVVNSGGNVTLQCDSQVAFDGFILCKEGEDEHPQCLNSQPHARGSSRAIFSVGPVSPGRRWWYRCYAYDSNSPYEWSLPSDLLELLVL	≤ 1000	≤ 2
SEQ ID NO 37 (receptor) MGHLPKPTLWAEPGSVITQGSPVTLRCQGGQETQEYRLYREKKTAPWITRIPQELVKKGQFPIPSITWEHAGRYRCYYGSDTAGRSESSDPLELVVTGIYKAPTLSAQPSPVVNSGGNVTLQCDSQVAFDGFILCKEGEDEHPQCLNSQPHARGSSRAIFSVGPVSPSRRWWYRCYAYDSNSPYEWSLPSDLLELLVL	≤ 1000	≤ 2
SEQ ID NO 21 (receptor) MGHLPKPTLWAEPGSVITLFQPVTLRCQGGQETQEYRLYREKKTAPWITRIPQELVKKGQFPIPSITWEHAGRYRCYYGSDTAGRSESSDPLELVVTGAYIKPTLSAQPSPVVNSGGNVTLQCDSQVAFDGFILCKEGEDEHPQCLNSQPHARGSSRAIFSVGPVSPSRRWWYRCYAYDSNSPYEWSLPSDLLELLVL	≤ 1000	≤ 2
SEQ ID NO 38 (receptor) MGHLPKPTLWAEPGSVITQGSPVTLRCQGGQETQEYRLYREKKTAPWITRIPQELVKKGQFPIPSITWEHAGRYRCYYGSDTAGRSESSDPLELVVTGIYQAPTLSAQPSPVVNSGGNVTLQCDSQVAFDGFILCKEGEDEHPQCLNSQPHARGSSRAIFSVGPVSPSRRWWYRCYAYDSNSPYEWSLPSDLLELLVL	≤ 1000	≤ 2
SEQ ID NO 36 (receptor) MGHLPKPTLWAEPGSVITQGSPVTLRCQGGQETQEYRLYREKKTAPWITRIPQELVKKGQFPIPSITWEHAGRYRCYYGSDTAGRSESSDPLELVVTGIYLAPTLSAQPSPVVNSGGNVTLQCDSQVAFDGFILCKEGEDEHPQCLNSQPHARGSSRAIFSVGPVSPSRRWWYRCYAYDSNSPYEWSLPSDLLELLVL	≤ 1000	≤ 2
SEQ ID NO 30 (receptor) MGHLPKPTLWAEPGSVITQGSPVTLRCQGGQETQEYRLYREKKTAPWITRIPQELVKKGQFPIPSITWEHAGRYRCMQYTLTAGRSESSDPLELVVTGAYIKPTLSAQPSPVVNSGGNVTLQCDSQVAFDGFILCKEGEDEHPQCLNSQPHARGSSRAIFSVGPVSPSRRWWYRCYAYDSNSPYEWSLPSDLLELLVL	≤ 1000	≤ 2
SEQ ID NO 24 (receptor) MGHLPKPTLWAEPGSVITQGSPVTLRCQGGQETQEYRLYREKKTAPWITRIPQELVKKGQFPIPSITWEHAGRYRCYYGSQGGLRSESSDPLELVVTGVYIKPTLSAQPSPVVNSGGNVTLQCDSQVAFDGFILCKEGEDEHPQCLNSQPHARGSSRAIFSVGPVSPSRRWWYRCYAYDSNSPYEWSLPSDLLELLVL	≤ 1000	≤ 2
SEQ ID NO 25 (receptor) MGHLPKPTLWAEPGSVITQGSPVTLRCQGGQETQEYRLYREKKTAPWITRIPQELVKKGQFPIPSITWEHAGRYRCYYGTQTAGRSESSDPLELVVTGVYIKPTLSAQPSPVVNSGGNVTLQCDSQVAFDGFILCKEGEDEHPQCLNSQPHARGSSRAIFSVGPVSPSRRWWYRCYAYDSNSPYEWSLPSDLLELLVL	≤ 1000	≤ 2
SEQ ID NO 27 (receptor) MGHLPKPTLWAEPGSVITQGSPVTLRCQGGQETQEYRLYREKKTAPWITRIPQELVKKGQFPIPSITWEHAGRYRCYYGSDTSQWSASSDPLELVVTGVYIKPTLSAQPSPVVNSGGNVTLQCDSQVAFDGFILCKEGEDEHPQCLNSQPHARGSSRAIFSVGPVSPSRRWWYRCYAYDSNSPYEWSLPSDLLELLVL	≤ 1000	≤ 2
SEQ ID NO 33 (receptor) MGHLPKPTLWAEPGSVITMDQPVTLRCQGGQETQEYRLYREKKTAPWITRIPQELVKKGQFPIPSITWEHAGRYRCVIQRGTAGRSESSDPLELVVTGVYIKPTLSAQPSPVVNSGGNVTLQCDSQVAFDGFILCKEGEDEHPQCLNSQPHARGSSRAIFSVGPVSPSRRWWYRCYAYDSNSPYEWSLPSDLLELLVL	≤ 1000	≤ 2
SEQ ID NO 8 (receptor) MGHLPKPTLWAEPGSVITLMQPVTLRCQGGQETQEYRLYREKKTAPWITRIPQELVKKGQFPIPSITWEHAGRYRCYYGSDTAGRSESSDPLELVVTGAYIKPTLSAQPSPVVNSGGNVTLQCDSQVAFDGFILCKEGEDEHPQCLNSQPHARGSSRAIFSVGPVSPSRRWWYRCYAYDSNSPYEWSLPSDLLELLVL	≤ 1000	≤ 2
SEQ ID NO 22 (receptor) MGHLPKPTLWAEPGSVITLSQPVTLRCQGGQETQEYRLYREKKTAPWITRIPQELVKKGQFPIPSITWEHAGRYRCYYGSDTAGRSESSDPLELVVTGVYIKPTLSAQPSPVVNSGGNVTLQCDSQVAFDGFILCKEGEDEHPQCLNSQPHARGSSRAIFSVGPVSPSRRWWYRCYAYDSNSPYEWSLPSDLLELLVL	≤ 1000	≤ 2
SEQ ID NO 28 (receptor) MGHLPKPTLWAEPGSVITQGSPVTLRCQGGQETQEYRLYREKKTAPWITRIPQELVKKGQFPIPSITWEHAGRYRCYYGSQGGLRSESSDPLELVVTGAYIKPTLSAQPSPVVNSGGNVTLQCDSQVAFDGFILCKEGEDEHPQCLNSQPHARGSSRAIFSVGPVSPSRRWWYRCYAYDSNSPYEWSLPSDLLELLVL	≤ 1000	≤ 2
SEQ ID NO 39 (receptor) MGHLPKPTLWAEPGSVITQGAPVTLRCQGGQETQEYRLYREKKTAPWITRIPQELVKKGQFPIPSITWEHAGRYRCYYGSDTAGRSESSDPLELVVTGVYIKPTLSAQPSPVVNSGGNVTLQCDSQVAFDGFILCKEGEDEHPQCLNSQPHARGSSRAIFSVGPVSPGRRWWYRCYAYDSNSPYEWSLPSDLLELLVL	≤ 1000	≤ 2
